Test results reported in patent US20250114463A1, “LIVER-TARGETED DRUG AND USE THEREOF” (HANMI PHARM. CO., LTD., priority 2021, published 2025).
Bridges are numbered along the chain shown (N, C = ends). Where no end group is shown, it is not given here. [ ]: non-standard residue; d: D form. The star is where a group is joined. Acetyl(2-(4-imidazolyl)) = O=C(Cc1c[nH]cn1)*; Aib = CC(C)(N)C(=O)O

B1: triple agonist of SEQ ID NO: 96 (peptide)
peptide: Y[Aib]QGTFTSDYSKYLDEKRAKEFVQWLLDHCPSSGQPPPS-NH2
modifications: bridge 16-20
B2: triple agonist of SEQ ID NO: 91 (peptide)
peptide: [Acetyl(2-(4-imidazolyl))][Aib]EGTFTSDYSIAMDEIHQKDFVDWLLAEKC
modifications: bridge 16-20; not fully specified (C-terminus)
B3: triple agonist of SEQ ID NO: 89 (peptide)
peptide: [Acetyl(2-(4-imidazolyl))][Aib]QGTFTSDYSKYLDEKRQKEFVQWLLDTKC
modifications: bridge 16-20; not fully specified (C-terminus)
B4: triple agonist of SEQ ID NO: 14 (peptide)
peptide: [Acetyl(2-(4-imidazolyl))]GQGTFTSDYSIQLDEIAVRDFVEWLKNGGPSSGAPPPSHG-NH2
B5: triple agonist of SEQ ID NO: 92 (peptide)
peptide: [Acetyl(2-(4-imidazolyl))][Aib]QGTFTSDYSIAMDEIHQKDFVNWLLAQKC
modifications: bridge 16-20; not fully specified (C-terminus)
B6: triple agonist of SEQ ID NO: 97 (peptide)
peptide: Y[Aib]QGTFTSDYSKYLDEKRAKEFVQWLLDCHPSSGQPPPS
modifications: bridge 16-20; not fully specified (C-terminus)
B7: triple agonist of SEQ ID NO: 101 (peptide)
peptide: Y[Aib]QGTFTSDYSKALDEKAAKEFVNWLLDQHPSSGQPPPSC
modifications: bridge 16-20; not fully specified (C-terminus); also: ring type not given here
B8: triple agonist of SEQ ID NO: 98 (peptide)
peptide: Y[Aib]QGTFTSDYSKALDEKAAKEFVNWLLDHHPSSGQPPPSC
modifications: bridge 16-20; not fully specified (C-terminus)
B9: triple agonist of SEQ ID NO: 93 (peptide)
peptide: [Acetyl(2-(4-imidazolyl))][Aib]QGTFTSDYSKYLDEKRQKEFVNWLLAQKC
modifications: bridge 16-20; not fully specified (C-terminus)
B10: triple agonist of SEQ ID NO: 90 (peptide)
peptide: [Acetyl(2-(4-imidazolyl))][Aib]EGTFTSDYSIAMDEIHQKDFVNWLLAQKC
modifications: bridge 16-20; not fully specified (C-terminus)

target: human GLP-1 receptor (human, UniProt P43220 24-463); assay: cell-based or functional assay

Binder	in vitro Activity Compared to Native Peptide (%), vs GLP-1 [%]
B1	34.4
B2	31.9
B3	7.1
B4	28
B5	0.8
B6	10.5
B7	23.2
B8	28.1
B9	5.7
B10	7.4

target: human GCG receptor (human, UniProt P47871 26-477); assay: cell-based or functional assay
Sequence (P47871 26-477): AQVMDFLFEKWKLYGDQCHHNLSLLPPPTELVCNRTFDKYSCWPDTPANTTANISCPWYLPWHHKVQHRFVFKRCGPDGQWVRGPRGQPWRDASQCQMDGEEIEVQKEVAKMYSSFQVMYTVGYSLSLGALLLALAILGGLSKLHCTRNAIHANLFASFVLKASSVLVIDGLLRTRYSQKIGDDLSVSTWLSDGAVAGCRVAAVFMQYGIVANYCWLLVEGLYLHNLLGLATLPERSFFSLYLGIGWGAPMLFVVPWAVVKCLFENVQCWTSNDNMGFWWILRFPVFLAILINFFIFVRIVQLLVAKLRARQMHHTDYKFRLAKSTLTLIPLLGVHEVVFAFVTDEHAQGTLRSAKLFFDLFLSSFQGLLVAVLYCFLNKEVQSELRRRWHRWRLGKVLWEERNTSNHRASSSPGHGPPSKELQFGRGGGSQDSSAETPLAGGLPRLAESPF

Binder	in vitro Activity Compared to Native Peptide (%), vs Glucagon [%]
B1	195
B2	16.8
B3	0.7
B4	< 0.1
B5	< 0.1
B6	62.8
B7	13.9
B8	8.2
B9	0.3
B10	< 0.1

target: T1, human GIP receptor (human, UniProt P48546 22-466); assay: cell-based or functional assay
T1 sequence (looked up): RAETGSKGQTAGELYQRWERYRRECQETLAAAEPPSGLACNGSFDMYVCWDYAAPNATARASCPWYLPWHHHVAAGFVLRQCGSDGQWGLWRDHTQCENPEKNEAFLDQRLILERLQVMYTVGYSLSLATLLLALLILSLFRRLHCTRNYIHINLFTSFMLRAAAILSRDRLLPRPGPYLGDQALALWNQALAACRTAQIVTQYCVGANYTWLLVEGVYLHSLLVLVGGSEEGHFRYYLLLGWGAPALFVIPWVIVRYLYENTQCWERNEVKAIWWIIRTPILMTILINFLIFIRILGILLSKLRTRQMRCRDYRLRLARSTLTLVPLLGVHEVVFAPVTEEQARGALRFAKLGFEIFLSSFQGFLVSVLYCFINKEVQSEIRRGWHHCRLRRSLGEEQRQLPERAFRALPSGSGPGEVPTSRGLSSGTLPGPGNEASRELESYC

Binder	in vitro Activity Compared to Native Peptide (%), vs GIP [%]
B1	5.2
B2	0.3
B3	< 0.1
B4	< 0.1
B5	0.4
B6	2.6
B7	40.1
B8	47.1
B9	0.7
B10	< 0.1
